“And” between values parts separate entries of the source, which are not always exact repeats. Equal entries are not always repeated. Values belong to the binder of their own block, whether it stands above or below them.
Columns and labels:
[1] = molecular target: T1, recombinant human IL-5 (human, UniProt P05113 20-134); test: SPR, Ab supernatant on Protein A chip, IL-5 analyte, run 3.2, average of 5
[2] = molecular target: T1, recombinant human IL-5; test: SPR, purified Ab on Protein A chip, IL-5 analyte, run 3.2
[3] = molecular target: T2, recombinant human IL-5 (human, UniProt P05113 20-134); test: Biacore SPR, Ab supernatant on Protein A chip
[4] = molecular target: T2, recombinant human IL-5; test: Biacore SPR, Ab supernatant on Protein A chip, average of replicates
[5] = molecular target: T2, recombinant human IL-5; test: Biacore SPR, purified Ab on Protein A chip
[6] = molecular target: T3, recombinant human IL-5 (human, UniProt P05113 20-134); test: Biacore SPR run 5.1
[7] = molecular target: T3, recombinant human IL-5; test: Biacore SPR run 5.1; remark: listed apart in the source
[8] = molecular target: T3, recombinant human IL-5; test: Biacore SPR run 5.1; remark: listed apart in the source
[9] = molecular target: T4, recombinant human IL-5 (human, UniProt P05113 20-134); test: SPR Biacore, Ab on Protein A chip, human IL-5 analyte, run 4.1, replicate 1
[10] = molecular target: T4, recombinant human IL-5; test: SPR Biacore, Ab on Protein A chip, human IL-5 analyte, run 4.1, replicate 5
[11] = molecular target: T4, recombinant human IL-5; test: SPR Biacore, Ab on Protein A chip, human IL-5 analyte, run 4.1, replicate 2
[12] = molecular target: T4, recombinant human IL-5; test: SPR Biacore, Ab on Protein A chip, human IL-5 analyte, run 4.1, replicate 3
[13] = molecular target: T4, recombinant human IL-5; test: SPR Biacore, Ab on Protein A chip, human IL-5 analyte, run 4.1, replicate 4
[14] = molecular target: T4, recombinant human IL-5; test: SPR Biacore, Ab on Protein A chip, human IL-5 analyte, run 4.1, average
[15] = molecular target: T4, recombinant human IL-5; test: SPR Biacore, purified Ab on Protein A chip, human IL-5 analyte, run 4.1
[16] = molecular target: recombinant human IL-5 (human, UniProt P05113 20-134); test: SPR

% 3A5.040 kd [3]: 10%
Kd [3]: 3.37 nM
B5: 3A5.492 (antibody, human IgG4 S228P, lambda, name in Kabat numbering, V domains shown)
VH: QVQLQESGPGLVKPSQTLSLTCTVSGGSISNGGYYWSWIRQHPGKGLEWIGYIYYSGSTYYNPSLKSRVTISVDTSKNQFSLKLSSVTAADTAVYYCAYLGNWFDYWGQGTLVTVSS
VL: SYVLTQPPSVSVAPGQTARITCGGNNIGSKNVYWYQQKPGQAPVLVVHDDSDRPSGIPERFSGSNSGNTATLTISRVEVGDEADYSCQVWDSSSDHVVFGGGTKLTVLG

% 3A5.040 kd [3]: 2%
Kd [3]: 2.11 nM
B6: 3A5.496 (antibody, human IgG4 S228P, lambda, name in Kabat numbering, V domains shown)
VH: QVQLQESGPGLVKPSQTLSLTCTVSGGSISNGGYYWSWIRQHPGKGLEWIGYIYYSGSTYYNPSLKSRVTISVDTSKNQFSLKLSSVTAADTAVYYCAHLGNWFDYWGQGTLVTVSS
VL: SYVLTQPPSVSVAPGQTARITCGGNNIGSKNVYWYQQKPGQAPVLVVHDDSDRPSGIPERFSGSNSGNTATLTISRVEVGDEADYSCQVWDSSSDHVVFGGGTKLTVLG

% 3A5.040 kd [3]: 105%
Kd [3]: 0.154 nM
B7: 3A5.485 (antibody, human IgG4 S228P, lambda, name in Kabat numbering, V domains shown)
VH: QVQLQESGPGLVKPSQTLSLTCTVSGGSISNGGYYWSWIRQHPGKGLEWIGYIYYSGSTYYNPSLKSRVTISVDTSKNQFSLKLSSVTAADTAVYYCQSLGNWFDYWGQGTLVTVSS
VL: SYVLTQPPSVSVAPGQTARITCGGNNIGSKNVYWYQQKPGQAPVLVVHDDSDRPSGIPERFSGSNSGNTATLTISRVEVGDEADYSCQVWDSSSDHVVFGGGTKLTVLG

% 3A5.040 kd [3]: 16%
Kd [3]: 0.945 nM
B9: 3A5.494 (antibody, human IgG4 S228P, lambda, name in Kabat numbering, V domains shown)
VH: QVQLQESGPGLVKPSQTLSLTCTVSGGSISNGGYYWSWIRQHPGKGLEWIGYIYYSGSTYYNPSLKSRVTISVDTSKNQFSLKLSSVTAADTAVYYCAQLGNWFDYWGQGTLVTVSS
VL: SYVLTQPPSVSVAPGQTARITCGGNNIGSKNVYWYQQKPGQAPVLVVHDDSDRPSGIPERFSGSNSGNTATLTISRVEVGDEADYSCQVWDSSSDHVVFGGGTKLTVLG

% 3A5.040 kd [3]: 13%
Kd [3]: 1.52 nM
B10: 3A5.491 (antibody, human IgG4 S228P, lambda, name in Kabat numbering, V domains shown)
VH: QVQLQESGPGLVKPSQTLSLTCTVSGGSISNGGYYWSWIRQHPGKGLEWIGYIYYSGSTYYNPSLKSRVTISVDTSKNQFSLKLSSVTAADTAVYYCALLGNWFDYWGQGTLVTVSS
VL: SYVLTQPPSVSVAPGQTARITCGGNNIGSKNVYWYQQKPGQAPVLVVHDDSDRPSGIPERFSGSNSGNTATLTISRVEVGDEADYSCQVWDSSSDHVVFGGGTKLTVLG

Kd [3]: 0.128 nM
B11: 3A5.490 (antibody, human IgG4 S228P, lambda, name in Kabat numbering, V domains shown)
VH: QVQLQESGPGLVKPSQTLSLTCTVSGGSISNGGYYWSWIRQHPGKGLEWIGYIYYSGSTYYNPSLKSRVTISVDTSKNQFSLKLSSVTAADTAVYYCAALGNWFDYWGQGTLVTVSS
VL: SYVLTQPPSVSVAPGQTARITCGGNNIGSKNVYWYQQKPGQAPVLVVHDDSDRPSGIPERFSGSNSGNTATLTISRVEVGDEADYSCQVWDSSSDHVVFGGGTKLTVLG

% 3A5.040 kd [16]: 34%
Kd [16]: 0.431 nM
B13: 3A5.495 (antibody, human IgG4 S228P, lambda, name in Kabat numbering, V domains shown)
VH: QVQLQESGPGLVKPSQTLSLTCTVSGGSISNGGYYWSWIRQHPGKGLEWIGYIYYSGSTYYNPSLKSRVTISVDTSKNQFSLKLSSVTAADTAVYYCAKLGNWFDYWGQGTLVTVSS
VL: SYVLTQPPSVSVAPGQTARITCGGNNIGSKNVYWYQQKPGQAPVLVVHDDSDRPSGIPERFSGSNSGNTATLTISRVEVGDEADYSCQVWDSSSDHVVFGGGTKLTVLG

% 3A5.040 kd [16]: 85%
Kd [16]: 0.263 nM
B14: 3A5.498 (antibody, human IgG4 S228P, lambda, name in Kabat numbering, V domains shown)
VH: QVQLQESGPGLVKPSQTLSLTCTVSGGSISNGGYYWSWIRQHPGKGLEWIGYIYYSGSTYYNPSLKSRVTISVDTSKNQFSLKLSSVTAADTAVYYCAPLGNWFDYWGQGTLVTVSS
VL: SYVLTQPPSVSVAPGQTARITCGGNNIGSKNVYWYQQKPGQAPVLVVHDDSDRPSGIPERFSGSNSGNTATLTISRVEVGDEADYSCQVWDSSSDHVVFGGGTKLTVLG

% 3A5.040 kd [16]: 3%
Kd [16]: 1.75 nM
B15: 3A5.497 (antibody, human IgG4 S228P, lambda, name in Kabat numbering, V domains shown)
VH: QVQLQESGPGLVKPSQTLSLTCTVSGGSISNGGYYWSWIRQHPGKGLEWIGYIYYSGSTYYNPSLKSRVTISVDTSKNQFSLKLSSVTAADTAVYYCAWLGNWFDYWGQGTLVTVSS
VL: SYVLTQPPSVSVAPGQTARITCGGNNIGSKNVYWYQQKPGQAPVLVVHDDSDRPSGIPERFSGSNSGNTATLTISRVEVGDEADYSCQVWDSSSDHVVFGGGTKLTVLG

The next lines start with the binder.

B1: 3A5.040 (antibody, human IgG4 S228P, lambda)
heavy: not shown
light: SYVLTQPPSVSVAPGQTARITCGGNNIGSKNVYWYQQKPGQAPVLVVHDDSDRPSGIPERFSGSNSGNTATLTISRVEVGDEADYSCQVWDSSSDHVVFGGGTKLTVLGQPKAAPSVTLFPPSSEELQANKATLVCLISDFYPGAVTVAWKADSSPVKAGVETTTPSKQSNNKYAASSYLSLTPEQWKSHRSYSCQVTHEGSTVEKTVAPTECS
Kd [1]: 0.131 nM
koff [1]: 9.07e-05 s⁻¹
kon [1]: 695000 M⁻¹ s⁻¹
Kd [2]: 0.116 nM
koff [2]: 8.25e-05 s⁻¹
kon [2]: 712000 M⁻¹ s⁻¹

B2: 3A5.040 (antibody, human IgG4 S228P, lambda)
heavy: not shown
light: SYVLTQPPSVSVAPGQTARITCGGNNIGSKNVYWYQQKPGQAPVLVVHDDSDRPSGIPERFSGSNSGNTATLTISRVEVGDEADYSCQVWDSSSDHVVFGGGTKLTVLGQPKAAPSVTLFPPSSEELQANKATLVCLISDFYPGAVTVAWKADSSPVKAGVETTTPSKQSNNKYAASSYLSLTPEQWKSHRSYSCQVTHEGSTVEKTVAPTECS
Kd [3]: 0.148 nM and 0.149 nM
koff [3]: 0.000103 s⁻¹ and 0.000106 s⁻¹
kon [3]: 696000 M⁻¹ s⁻¹ and 710000 M⁻¹ s⁻¹
Kd [4]: 0.149 nM
koff [4]: 0.000105 s⁻¹
kon [4]: 703000 M⁻¹ s⁻¹
Kd [5]: 0.092 nM
koff [5]: 6.63e-05 s⁻¹
kon [5]: 721000 M⁻¹ s⁻¹

B3: 3A5.040 (antibody, human IgG4 S228P, lambda)
heavy: not shown
light: SYVLTQPPSVSVAPGQTARITCGGNNIGSKNVYWYQQKPGQAPVLVVHDDSDRPSGIPERFSGSNSGNTATLTISRVEVGDEADYSCQVWDSSSDHVVFGGGTKLTVLGQPKAAPSVTLFPPSSEELQANKATLVCLISDFYPGAVTVAWKADSSPVKAGVETTTPSKQSNNKYAASSYLSLTPEQWKSHRSYSCQVTHEGSTVEKTVAPTECS
Kd [6]: 0.186 nM and 0.175 nM and 0.187 nM and 0.177 nM
koff [6]: 0.000122 s⁻¹ and 0.000112 s⁻¹ and 0.000125 s⁻¹ and 0.000117 s⁻¹
kon [6]: 656000 M⁻¹ s⁻¹ and 643000 M⁻¹ s⁻¹ and 667000 M⁻¹ s⁻¹ and 663000 M⁻¹ s⁻¹
Kd [7]: 0.153 nM
koff [7]: 0.000108 s⁻¹
kon [7]: 707000 M⁻¹ s⁻¹
Kd [8]: 0.181 nM
koff [8]: 0.000119 s⁻¹
kon [8]: 657000 M⁻¹ s⁻¹

B4: 3A5.040 (antibody, human IgG4 S228P, lambda)
heavy: not shown
light: SYVLTQPPSVSVAPGQTARITCGGNNIGSKNVYWYQQKPGQAPVLVVHDDSDRPSGIPERFSGSNSGNTATLTISRVEVGDEADYSCQVWDSSSDHVVFGGGTKLTVLGQPKAAPSVTLFPPSSEELQANKATLVCLISDFYPGAVTVAWKADSSPVKAGVETTTPSKQSNNKYAASSYLSLTPEQWKSHRSYSCQVTHEGSTVEKTVAPTECS
Kd [9]: 0.116 nM
koff [9]: 0.000116 s⁻¹
kon [9]: 1e+06 M⁻¹ s⁻¹
Kd [10]: 0.0937 nM
koff [10]: 9.29e-05 s⁻¹
kon [10]: 991000 M⁻¹ s⁻¹
Kd [11]: 0.104 nM
koff [11]: 0.000107 s⁻¹
kon [11]: 1.02e+06 M⁻¹ s⁻¹
Kd [12]: 0.109 nM
koff [12]: 0.000112 s⁻¹
kon [12]: 1.03e+06 M⁻¹ s⁻¹
Kd [13]: 0.105 nM
koff [13]: 0.000106 s⁻¹
kon [13]: 1.01e+06 M⁻¹ s⁻¹
Kd [14]: 0.106 nM
koff [14]: 0.000107 s⁻¹
kon [14]: 1.01e+06 M⁻¹ s⁻¹
Kd [15]: 0.103 nM
koff [15]: 0.000109 s⁻¹
kon [15]: 1.06e+06 M⁻¹ s⁻¹

B8: 3A5.481 (antibody, human IgG4 S228P, lambda, name in Kabat numbering, V domains shown)
VH: QVQLQESGPGLVKPSQTLSLTCTVSGGSISNGGYYWSWIRQHPGKGLEWIGYIYYSGSTYYNPSLKSRVTISVDTSKNQFSLKLSSVTAADTAVYYCSSLGNWFDYWGQGTLVTVSS
VL: SYVLTQPPSVSVAPGQTARITCGGNNIGSKNVYWYQQKPGQAPVLVVHDDSDRPSGIPERFSGSNSGNTATLTISRVEVGDEADYSCQVWDSSSDHVVFGGGTKLTVLG
% 3A5.040 kd [3]: 112%
Kd [3]: 0.13 nM

B12: 3A5.482 (antibody, human IgG4 S228P, lambda, name in Kabat numbering, V domains shown)
VH: QVQLQESGPGLVKPSQTLSLTCTVSGGSISNGGYYWSWIRQHPGKGLEWIGYIYYSGSTYYNPSLKSRVTISVDTSKNQFSLKLSSVTAADTAVYYCLSLGNWFDYWGQGTLVTVSS
VL: SYVLTQPPSVSVAPGQTARITCGGNNIGSKNVYWYQQKPGQAPVLVVHDDSDRPSGIPERFSGSNSGNTATLTISRVEVGDEADYSCQVWDSSSDHVVFGGGTKLTVLG
% 3A5.040 kd [3]: 52%
Kd [3]: 0.79 nM
